T1: ICOS extracellular domain (PD-1 family member) (UniProt Q9Y6W8 21-140, limits assumed)
T1 construct: extracellular domain; not shown: His tag
T1 sequence (looked up): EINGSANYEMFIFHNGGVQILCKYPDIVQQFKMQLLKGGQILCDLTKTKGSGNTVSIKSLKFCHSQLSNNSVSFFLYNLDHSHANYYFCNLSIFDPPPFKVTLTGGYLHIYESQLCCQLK

T2: CTLA-4 extracellular domain (PD-1 family member) (UniProt P16410 36-161, limits assumed)
T2 construct: extracellular domain; not shown: His tag
T2 sequence (looked up): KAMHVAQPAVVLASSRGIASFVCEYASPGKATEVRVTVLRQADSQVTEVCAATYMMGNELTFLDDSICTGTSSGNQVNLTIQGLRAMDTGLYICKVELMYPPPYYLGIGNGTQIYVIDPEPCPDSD

B1: PD-1 antibody 1B8 (antibody, V domains shown)
VH: EVQLVLSGGGFVQPGGSLKLSCAASGFTFSSYAMSWVRQNPERRLVWVATITGGGRNTYYPDSVKGRFTISRDNAKNTLYLQMSSLRSEDTAMYYCTRQGYDGYTWFAYWGQGTLVTVS
VL: not shown
notes: detection used an anti-human IgG secondary antibody; also called Murine 1B8
B2: PD-1 antibody 1-35 (antibody, V domains shown)
VH: QVQLQESGPGLVKPSQTLSLTCTVSGGSISSGAYYWSWIRQHPGKGLEWIGYIYYNGNTYYNPSLRSLVTISVDASKNQFSLKLSSVTAADTAVYYCARASDYVWGGYRYMDAFDIWGRGTLITVSS
VL: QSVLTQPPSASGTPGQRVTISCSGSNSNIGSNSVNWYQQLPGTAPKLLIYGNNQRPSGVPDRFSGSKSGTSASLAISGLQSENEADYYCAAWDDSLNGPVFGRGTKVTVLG
notes: detection used an anti-human IgG secondary antibody
B3: PD-1 antibody 3H4 (antibody, V domains shown)
VH: QIQLQQSGPELVKPGASVKISCKASGYTFTDYYINWVKQKPGQGLEWIGWIYPGSVNTKYNEKFRGKATLTVDTSSSTAYIQLSGLTSEDTAVYFCARYSNWFFDVWGAGTAVTVS
VL: DIVMTQSPSSLSASLGERVSLTCRASQEISGYLSWLQQKPDGTIKRLIYAASTLDSGVPKRFSGSRSGSDYSLSISSLESEDFADYYCLQYASYPYTFGGGTKLEIKR
notes: detection used an anti-human IgG secondary antibody; also called Murine 3H4
B4: PD-1 antibody 20B3.1 (antibody, V domains shown)
VH: EVKLVESGGGLVKPGGSLKLSCAASGFTFSSFGMSWVRQTPEKRLEWVATISGGGSNTYYPDSVKGRFTISRDNAKNNLYLQMTSLTSEDTALYYCTRIYDVAWFAYWGQGTLVTVS
VL: not shown
notes: detection used an anti-human IgG secondary antibody; also called Murine 20B3.1
B5: PD-1 antibody 1-33 (antibody, V domains shown)
VH: QVQLVQSGAEVKKPGASVRVSCKASGYTLTSYYIHWVRQAPGQGLEWMGIINPRGATISYAQKFQGRVTMTRDTSTSTVYMELRNLKSEDTALYYCATAGIYGFDFDYWGRGTLVTVSS
VL: QSALTQPASVSGSPGQSITISCTGTSNDVGGYNYVSWYQHHPGKAPKLIIYDVTNRPSGVSDRFSGSKSGNTASLTISGLLAEDEGDYYCSSYTIVTNFEVLFGGGTKLTV
notes: as for B2
B6: PD-1 antibody 1-17 (antibody, V domains shown)
VH: QVQLQESGPGVVKPSGTLSLTCAISGGSIGSGGSIRSTRWWSWVRQSPGKGLEWIGEIYHSGSTNYNPSLKSRVTISLDKSRNHFSLRLNSVTAADTAVYYCARQDYGDSGDWYFDLWGKGTMVTVSS
VL: NFMLTQPHSVSESPGKTVTISCTRSSGSIASNSVQWYQQRPGSSPTTVIYEDNQRPSGVPDRFSGSIDSSSNSASLTVSGLKTEDEADYYCQSSDSSAVVFGSGTKLTVL
notes: as for B2
B7: PD-1 antibody 1-28 (antibody, V domains shown)
VH: EVQLVQSGAEVKKPGASVKVSCKASGYRFTSYGISWVRQAPGQGLEWMGWISAYNGNTNYAQKLQGRVTMTTDTSTNTAYMELRSLRSDDTAVYYCARDADYSSGSGYWGQGTLVTVSS
VL: SYELTQPPSVSVSPGQTARITCSGDALPKQYAYWYQQKPGQAPVMVIYKDTERPSGIPERFSGSSSGTKVTLTISGVQAEDEADYYCQSADNSITYRVFGGGTKVTVL
notes: as for B2
B8: PD-1 antibody 2.3A9 (antibody, V domains shown)
VH: QVQLQQSDAELVKPGTSVKISCKASGYTFTDHAIHWLKQEPDQGLEWIGYISPGYGDIEYNEKFKGKATLTADKSSSTAYMQLSSLTSEDSAVYFCKVTTGYWGQGTTLTVS
VL: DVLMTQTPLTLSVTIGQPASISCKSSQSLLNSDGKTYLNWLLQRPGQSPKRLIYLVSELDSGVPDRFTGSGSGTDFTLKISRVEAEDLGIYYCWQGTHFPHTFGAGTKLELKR
notes: detection used an anti-human IgG secondary antibody; also called Murine 2.3A9

These binders were tested against T1, ICOS extracellular domain (PD-1 family …) (assay: ELISA, His-tagged extracellular domain on plate).
Description: (§1) His-tagged extracellular domains of human PD-1, cynomolgus PD-1, and PD-1 family members ICOS, CD28, and CTLA-4 extracellular domains were immobilized on 96 well ELISA plates. Plates were washed with PBST (phosphate buffered saline+0.05% Tween 20) and blocked for 1 hour with 1% BSA in PBS. Following washing with PBST, test PD-1 antibodies were added to the coated plate and incubated for 2 hours at room temperature. Plates were washed and incubated with HRP-conjugated goat anti-human IgG secondary antibody for 1 hour at room temperature. Following washing, antibody binding was detected colorimetrically by adding 3,3′,5,5′-tetramethylbenzidine (TMB) and incubated at room temperature for 10-20 minutes before adding 2.5N sulfuric acid stopping solution. Absorbance at 450 nm was measured on a plate reader (PerkinElmer). Data was analyzed using Graph-Pad Prism.

Row | binding result | Binder
1 | no binding | B1
2 | no binding | B2
3 | no binding | B3
4 | no binding | B4
5 | no binding | B5
6 | no binding | B6
7 | no binding | B7
8 | no binding | B8

What follows are binders tested against T3, CD28 extracellular domain (PD-1 family member) (UniProt P10747 19-152, limits assumed) (assay: ELISA, His-tagged extracellular domain on plate).
T3 construct: extracellular domain; not shown: His tag
T3 sequence (P10747 19-152 limits assumed): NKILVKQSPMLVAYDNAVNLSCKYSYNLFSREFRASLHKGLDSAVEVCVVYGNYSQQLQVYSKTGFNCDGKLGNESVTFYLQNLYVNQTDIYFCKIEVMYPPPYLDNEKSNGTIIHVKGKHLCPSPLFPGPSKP
Description: as §1

Row | binding result | Binder
9 | no binding | B1
10 | no binding | B2
11 | no binding | B3
12 | no binding | B4
13 | no binding | B5
14 | no binding | B6
15 | no binding | B7
16 | no binding | B8

These binders were tested against T2, CTLA-4 extracellular domain (PD-1 …) (assay: ELISA, His-tagged extracellular domain on plate).
Description: as §1

Row | binding result | Binder
17 | no binding | B1
18 | no binding | B2
19 | no binding | B3
20 | no binding | B4
21 | no binding | B5
22 | no binding | B6
23 | no binding | B7
24 | no binding | B8

These binders were tested against T4, PD-1 biotin (UniProt Q15116 25-167, limits assumed, biotin (site not stated)) (assay: PD-1/PD-L1 blocking ELISA, interpolated on a standard curve of a PD-1 neutralizing antibody).
T4 construct: also called biotinylated PD-1
T4 sequence (Q15116 25-167 limits assumed): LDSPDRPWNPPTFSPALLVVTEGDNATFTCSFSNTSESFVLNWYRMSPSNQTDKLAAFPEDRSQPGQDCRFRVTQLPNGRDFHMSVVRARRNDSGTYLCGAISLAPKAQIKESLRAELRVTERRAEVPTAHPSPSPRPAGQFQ
Description: The ability of disclosed PD-1 antibodies to block the PD-1/PD-L1 interaction was assessed using an ELISA based assay.
Briefly, human PD-L1 was immobilized on 96 well ELISA plates. Plates were washed and blocked for 1.5 hours at 37° C. with block buffer. Plates were washed and test PD-1 antibodies, isotype controls, or a standard curve of PD-1 neutralizing antibody were added to the coated plate and incubated for 1 hour at 37° C. […] Following washing, streptavidin-HRP was added to the plate and the plate was incubated at 37° C. for 1 hour. After a final wash, antibody binding was detected colorimetrically by adding a subrate solution and incubating for 20 minutes protected from light before adding stop solution. Absorbance at 450 nm was measured on a plate reader (PerkinElmer). Data was analyzed using GraphPad Prism.
Percent blocking of tested PD-1 antibodies was determined by interpolating values obtained from each sample against the standard control curve (see FIG. 1) and summarized in Table 4.

Row | Percent Blocking [percent] | Binder
25 | 90 | B1
26 | 58 | B2
27 | 46 | B3
28 | 94 | B4
29 | 68 | B5
30 | 7 | B6
31 | 87 | B7
32 | 0 | B8

From patent US20260055187A1 (SANTA ANA BIO, published 2026)
